In a protein production outcome set (Wang et al. 2014):

Experiment: label from the status in PepcDB records
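Also: failed if final PepcDB status was selected cloned or expressed and not failed if soluble or beyond.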

Sequence: MELWIGITFASAFLQNLRSTLQKHLKGMMGTTGATFVRFVFGMPFALAYLAFLHLGLGRPLPVPNMSFAGWATVGAMAQIAATFLLVHLFSFRNFAVGTAYSRTEPAQAALFALIFIGESITGGTLAAIAISVAGVMLISVARTQVTPASFLTSIFSRTAGIGLASGAFFGLSSVAYRSASLALAPSLPAPDAMMQAGFTLVVVIVMQTVSMFLWIIWREREELPRIAKVWKPSLAVGFVGATASFGWFTAMTLQQAAVVKALAQVEMLFAFASTVLFFKEKINRLELSGCMLIVVGVLSLLAFG
- protein production: failed

Sequence: MELYQDNKLNNVGNIEINQCDGVIKKENDLHVSVIKPITKKIIHCDNMENKMKINAFYKPVELVEEIKNYVHKGDTHLVKLYEDFKNKKDKKVKMKNEYMTKLKNLHILNMINNKKKENECGVVNKNNIVHFNLFNENEDVTPKIETVYIPKLEKNIEVVSHLKENVNVDYTYMVPKPVVIPIEVPILKFRDHFKIIPIRKKIIPVIKYTDNIIYVDCCVEKPYIVYENVIIPVPCDIPIEQKKYIDKVPPI
- protein production: failed

Sequence: MEMEERKLKILQAIINDYINNGEPVGSRTIAKKYNLGISSATIRNEMADLEEMGYIEQLHTSSGRKPSDKGYRLYVDRLMEIPSMSVEEEMLIKAKIIDSALYEIDKLVKQAMSLVSEMTKLTCVVKSLSARKSYIKSISLINIEPNMILCVFITDSGMIKNSIIRVKSNIENSSLERIANILNSKLKGLTIEQINLEVINNIKKDLREYGHIFDCIMPNLYDILREADSTEVYKEGTMNIFNYPEFKDIEKAKEFLSVIDDRRILDTLFNASGGVTVNIGNENSIKEARDFSVVSSVYKYNGRPLGTIGIIGPTRIPYSKVIKVIMEVVDQINNNLDKMNNS
- protein production: failed

Sequence: MEMIGGDDTDTEMYGALVTAQSLRLRHLHHCRENQCTSVLVKYIQAPVHLVWSLVRRFDQPQKYKPFISRCTVNGDPEIGCLREVNVKSGLPATTSTERLEQLDDEEHILGINIIGGDHRLKNYSSILTVHPEMIDGRSGTMVMESFVVDVPQGNTKDDTCYFVESLIKCNLKSLACVSERLAAQDITNSIATFCNASNGYREKNHTETNL
- protein production: failed

Sequence: MEMIRGRGIPNGVVQVPNLSANNLLQKFFIASNHFCQRDSEHGENQQEAKKREDEAEEDEKDVELTLGLSLNGQFGTDPRSRKRRHFELGRSSSIPEGFVFDEQRSGGGNGGDMRRIVGRGGSDMFQLDRTRSLPVVTEMDIEKERKVSEKTRAFMESPVTNRGAYLTKDKNRGQAVETEKPRAFLEFKIPPTKEGKKEKDRLVVTGPVNGKGKNGNTAKKQKNNVENSGMEKARNILEDMPCVSTRDVGADGKRVEGFLYWYGGNKEEVKIVCVCHGSFLSPAEFVRHGGGTVSDDDGGDVMINPLRHIVVKLPSSSI
- protein production: failed

Sequence: MEMVNAEAKQSVPLLTPYKMGRFNLSHRVVLAPLTRQKSYGSVPQPHAILYYSQRTSPGGFLIAEATGVSDTAQGYPDTPGIWTKEHVEAWKPIVDAVHAKGGIFFCQIWHVGRVSNRGFQPRRQAPISCTGKPIMPQMRANGIDEARFTPPRRLSIEEIPGIVNDFRLAARNAMEAGFDGVEIHGAHGYLIDQFMKDKVNDRTDEYGGSLQNRCKFALEVVDAVAKEIGPDRVGIRLSPFADYMESGDTNPEALGLYMVESLNKYGILYCHMIEPRMKTVGEIAACSHTLMPMREAFKGTFISAGGFTREDGNEAVAKGRTDLVAYGRWFLANPDLPKRFQLDAPLNKYNRSTFYTSDPVVGYTDYPSLESTA
- protein production: failed

Sequence: MEMYFKRMKDEWTGLVEQADPPIRAKAAEIAVAHAHYLSIEFYRIVRIDPHAEEFLSNEQVERQLKSAMERWIINVLSAQVDDVERLIQIQHTVAEVHARIGIPVEIVEMGFRVLKKILYPVIFSSDYSAAEKLQVYHFSINSIDIAMEVMTRAFTFSDSSASKEDENYRIFSLLENAEEEKERQIASILSWEIDIIYKILLDSDLGSSLPLSQADFGLWFNHKGRHYFSGIAEVGHISRLIQDFDGIFNQTMRNTRNLNNRSLRVKFLLQIRNTVSQIITLLRELFEEVSRHEVGMDVLTKLLNRRFLPTIFKREIAHANRTGTPLSVLIIDVDKFKEINDTWGHNTGDEILRKVSQAFYDNVRSSDYVFRYGGDEFIIVLTEASENETLRTAERIRSRVEKTKLKAANGEDIALSLSIGAAMFNGHPDYERLIQIADEALYIAKRRGRNRVELWKASL
- protein production: failed

Sequence: MENEKIWIKELKEKRLAYGVSQNKLAVASHITRPYLSDIETGKAVPTQQVKEDLLNALERFNPDNPLEMLFDYVRIRFPTNDVAQIIGEVLRLNMDYMLHEDFGYYSYPEHYRFGDIVVLVSHDVSKGVLLELKGKGCRQFENFLLAQHRSWYDFFQDCMEHKGIFKRLDLAINDKTGILNIPDLAKKCKQEECISVFRSFKNYRSGELVHRDEKPYMGNTLYIGSLKSEVYFCIYEKDYEQYVKNDVPLEDAEVKNRFEIRLKNDRATQAMKDLLAHQQAEKTAFEIINRYIRFADKDDTKRRSDWKTNERWEWFIGKNRGALRLTTQPEPYSFERTLNWLHHQVAPTLKIASILDVLNGTTIISTMIQEAKLTEKHEKLIEQQHLAMEDLIT
- protein production: not failed

Sequence: MENEVTLLDLLWALRRAFLRLLLLALGVGLGVYALSLLLPKRYESAALLWLDLRPFPSQEALRPFPSQEALRPFPSQEALSPDQPLTSPPLASLVQALDLSLPTLRLSPAGEPASRFAQVEWDAKAQVLSLRAFGATPEEAQRRATKLLEEARSFLQARVREAYGGLAAAELARAEKALGLLEKALQEEVPQVSSRGSADLAPFLEAQGTPPPVARAQDPAATYLALKRAELLAEASRLQAQVAWLRDLLAQDGTWDRFLAESVLLSPTLPERPLAPRPLAYGVLAALGALLLGVLWVFLATVLRPGGAGVPQSDA
- protein production: failed

Sequence: MENFLSLFDFFKSKIRYIFLIYTIFTIYMNSKNCFINYVLLIFLDVILIIYSFIFLNKKQKYPFLFIIISTIVYAFIWLFGHCDNIYYFIILDDIFEIKADFKKKLLVAIHSSAFMMVTLKNLIFKNYDLHEILSSIAYSIIIYMAILFVFIFIHKFKDERDKLKILNSNLIEYSFNEREFLLSEERNRISQELHDSIGHSLMALSMNIKYLKGIKNRSNINEELDNMDKVIKESVQTLRSTVYNLKKLDECCDLKKEVYDIIKKFNRLDIVKINFDCASDIEKSTTTIKNTLIKTIKEGITNSLKHGNPTEINVTLTLVNSYIKLIIQDNGVGCQNIKPSAGLNGIKKRIEALNGKVAFESKARKGFTIETEIPGGF
- protein production: failed

Sequence: MENGEAKQSVPLLTPYKMGRFNLSHRVVLAPLTRQRSYGNVPQPHAAIYYSQRTTPGGFLITEATGVSDTAQGYQDTPGIWTKEHVEAWKPIVDAVHAKGGIFFCQIWHVGRVSNSGFQPNGKAPISCSDKPLMPQIRSNGIDEALFTPPRRLGIEEIPGIVNDFRLAARNAMEAGFDGVEIHGANGYLIDQFMKDTVNDRTDEYGGSLQNRCKFPLEIVDAVAKEIGPDRVGIRLSPFADYMESGDTNPGALGLYMAESLNKYGILYCHVIEARMKTMGEVHACPHTLMPMRKAFKGTFISAGGFTREDGNEAVSKGRTDLVAYGRWFLANPDLPKRFQVDAPLNKYDRPTFYTSDPVVGYTDYPFLESTA
- protein production: not failed

Sequence: MENGLWEVLGSKGLLKKHEFIRILVQCLYSLGFKNSASCLEFESKILYKTADSEFLEKQVLSGNWDSCVQVLDRIFDNSMDDTRNTALYLVFKQCLLEYLKRGDVSLALNVLRKQAPLLRMGKEKIHRLACDIVYSKEMESGEVDNCLVLDLRRKLLVELEKLIPLPIVIPERRLEHLVETAVMDQIDTCMYHNSCDAVSLYKDHCCGRDQIPSETVQILVAHKNEVWFVQFSNSGKYLATASSDCTAIIWKVLDDNKVELKHTLESHQNPVSFVSWSPDDTKLLTCGNAEVLKLWDVDTGVLRHTFGNNNTGFTVSSCAWFPDSTRLVCGSSDPERGIVMWDTDGNEIKAWRGTRIPKVVDLAVTPDGESMITVFSDKEIRILNLETKVERVISEEQPITSLSISGDGKFFIVNLSCQEIHLWDLAGEWKQPLKFSGHRQSKYVIRSCFGGLDSSFIASGSEDSQVYIWNLKNTKPLEVLSGHSMTVNCVSWNPKNPRMLASASDDQTIRIWGPGKPNKPLN
- protein production: failed

Sequence: MENKQVSTTQAAAKEPLIGYVHSIETFGSVDGPGIRYVAFLQGCHMRCQYCHNPDTWKLNVGDQMTADEILEDAAKYRAFWGKTGGITVSGGESLVQIDFILDLFEKAKAMNISTCLDTSGQPFTREQPFFDKFERLMKVTDISLVDIKHIDSAKHKQLTQYGNENILDMIQYMAQHHDDMWIRHVLVPQRTDYDEDLKKLGDYIAKIPNDVVQKVEVLPYHTLGVKKYHEMKIKYRLEGIESPTQDRVANAEKLLHTADYNGYKTWMPLPKL
- protein production: failed

Sequence: MENLKKYLEVAKIAALAGGQVLKENFGKVKKENIEEKGEKDFVSYVDKTSEERIKEVILKFFPDHEVVGEEMGAEGSGSEYRWFIDPLDGTKNYINGFPIFAVSVGLVKGEEPIVGAVYLPYFDKLYWGAKGLGAYVNGKRIKVKDNESLKHAGVVYGFPSRSRRDISIYLNIFKDVFYEVGSMRRPGAAAVDLCMVAEGIFDGMMEFEMKPWDITAGLVILKEAGGVYTLVGEPFGVSDIIAGNKALHDFMLQVAKKYMEVAV
- protein production: not failed

Sequence: MENSRHNEFFLPLLLCIILPIIFMLTTNIKILRKTFSFILQNSFLQSFVTIFISIILEALPFIIIGVFLSSLIQVFISEETLSRIIPKNIVLGILSAATIGLIFPVCDCAIVPIVRRLLKKGLPLPIGITFMLSVPIINPVVLTSTYYAFLSNPHAPLIRAVAGWISAVLIGFIINKLDKSKTKQAKLHEILFNERVYMPKNNPIVTSNHNHEHHKCSCGHVHHEEEKFSALTLVHVLDHVSLELQDVGRFVIMGAFLSALMQTFIPRKYILSIGHGNISSIIVMMILAYVLCVCSETDAFIARTFVNQFTNGSIVAFLIFGPMIDIKNTLMLCETFNLKFVFKLVSIIIVVCFLIGLAFNFVKIPL
- protein production: failed

Sequence: MENVKVSVIVPVYNVETYLEEALMSLKNQTLKEIEFLIINDGSTDNSQKIIEEIAQDDPRFRVFNVKNGGIGKAFNLGVSEAKGEYIAEFESDDYVALHAYERLYNTAKSHHADVVRCNWVEFSSEEEVERDILWQYPDKYNQLIDLKTTDLIVQVYPWNAIYKKSMIEKENVTWDEEIKSYGDTGLFWKINSASQNVIFIKDCLYFYRQDNPNSTVNNVATKVPFLFQQFKLIRSNLIEQNKFERYKGYFYKQMFEKYFWAIEKLTHLRDESVYEVIQKVAVDFRQALETDQLNDIDFEYIKQFYQIANDPAAYYEDYLKNLYKVSVVMPIHNASKYLRQTLETVCEQSLREIEIILVENGSTDNTMDIINEFAVKDPRITGISIGKSNPGHARNVGISMARGRYLQFLDADDHFEANLLQDAYYRAYDSATDILLFGMKEKLPNGEVHVVHNPLLTNGGRMSGEEISLDEVTPYLYDKLFLLEYIKENNLVNLEQFVGEDAYFTYTALLGTEKIVALNKYLLTRIVRQDGLMSTYGMNYRDEFNLHDKMLEYLKQHAPNRIEAYRLKIINTLNWFIFDMNRVDQAFKERFYQELKEKYIQQLGLDLVKKEKYSNDPEQVERITRIQNILQYNLEIYQNIYKDFGMKKTFIIPNVHIQERGGKVIFGQEKTQGNGTAIEMFSIIIADNDTSNASGVIDFVYMGDNTKIIHDSLLVSLLIKKEGTTLKSIVLQAEWEKGYTLLQENMYYTFVDNVFTIWAGYTQKYAAFDYNVRILTSREGETHFSVVRQNQGYIQDTMTSIGNELTPINKIEGNEPTTIKKAVSKSLKKAKGLLK
- protein production: failed

Sequence: MENWFRADTWFGRLVDVGNTFIWTYVLIALLLGLGLYFTFVSRFVQFRLLGEMGRLLVEGMNRKAFKERKGTSSFQAFAISTAARVGTGNLAGVAVAISLGGPGAIFWMWIIALIGAATGFIESTLAQIYKVKDKDGFRGGPAYYMEKALNARWAGILFAILITLCFGLIFNAVQTHTIADAFVGAYDLNPFFIGLIIAFVMAFIVFGGIRRIAVIAEVIVPTFAIAYVLIALVIVLLNITQVPSVIGLIVGNAFGIQEVVGGGFGAAIMHGIRRGLFSNEAGMGSAPNAAATAHVSHPVKQGLVQSLSVLTDTLIICSATAFLILLTDVYTVGEMGGIQLTQEALTVHIGEWSMTFVTIAISFFAFSSLLGNYYYGEANIQFISQNRALLTVFRLAFLAMILIGATSELQIIWEMADLIMGAMAIVNLIAIALLAKIAVQALTDYQHQRKQGIDPVFYKNSLPDLKNIEAWDEKPVKEKN
- protein production: failed
